Experimental data reported in paper PMC4485320.

Columns and labels:
[1] = target: E. coli thioredoxin reductase (Escherichia coli) (UniProt P0A9P4)
[2] = target: E. coli thioredoxin reductase (Escherichia coli) (UniProt P0A9P4); remark: listed apart in the source

Sequence of UniProt P0A9P4 (P0A9P4 whole entry): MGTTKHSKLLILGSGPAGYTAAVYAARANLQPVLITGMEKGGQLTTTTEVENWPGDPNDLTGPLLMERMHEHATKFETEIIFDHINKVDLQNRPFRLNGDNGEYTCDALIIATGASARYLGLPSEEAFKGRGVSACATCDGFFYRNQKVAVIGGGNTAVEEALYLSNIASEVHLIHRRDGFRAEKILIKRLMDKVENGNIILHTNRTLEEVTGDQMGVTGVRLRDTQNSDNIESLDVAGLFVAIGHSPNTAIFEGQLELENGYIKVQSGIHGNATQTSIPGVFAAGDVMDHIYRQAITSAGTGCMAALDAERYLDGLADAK

kcat/KM of the reduction of Trx by TrxR [1]: > 1e+06 M⁻¹ s⁻¹
kcat of the reduction of the Trx variant by TrxR (Michaelis-Menten kinetics, DTNB/NADPH assay) [2]: 10 s⁻¹
Substance: Escherichia coli thioredoxin, wild type (from UniProt P0AA25 1-109) (natural protein)
